Source: patent US20020037516
Like-named read-outs stand apart in the source and are kept apart here.

Legend:
[1] = biological target: TSR thiostrepton resistance methyltransferase (tsr) (Streptomyces azureus) (UniProt P18644); conditions: Km of methylation; 5 mM MgCl2, 25 mM NH4Cl, pH 7.5, 25 C
Ribosomal protein L11 = experiment: inhibition; conditions: affinity from inhibition of TSR methylation; 5 mM MgCl2, 25 mM NH4Cl, pH 7.5, 25 C
[2] = biological target: TSR thiostrepton resistance methyltransferase (tsr) (Streptomyces azureus) (UniProt P18644); conditions: Km +/-3 nM, 15 experiments; 5 mM MgCl2, 25 C
[3] = test system: ErmE erythromycin resistance methyltransferase; conditions: Km of methylation; 10 mM MgCl2, 100 mM NH4Cl, pH 7.8, 30 min 25 C

## E. coli mGAR 60-mer
[1]
  activity: 50 nM
Ribosomal protein L11
  Ki: 84 nM

## GAR 58-mer RNA
[2]
  activity: 47 nM

## 23S rRNA (Erm substrate)
[3]
  activity: 23 nM
